Results from paper PMC5798227.

Target: DS-SOSIP.664 trimer (BG505) (HIV-1 BG505 (clade A))
Assay: SPR

2-domain soluble CD4 (receptor)
Kd: 8 nM
